T1: wild-type human CD81 large extracellular loop (human), P60033
T1 chain: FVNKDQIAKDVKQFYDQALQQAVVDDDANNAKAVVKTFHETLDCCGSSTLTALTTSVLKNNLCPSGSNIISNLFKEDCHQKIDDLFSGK


Columns and labels:
[1] = biological target: T1, wild-type human CD81 large …; assay: SEC-MALS; Superdex 200 Increase 10/300 GL, PBS with 200 mM NaCl, 0.75 mL/min, 200 µg of protein at about 2 mg/mL loaded; in-line MALS (miniDAWN TREOS II); conditions: remark: other sources report otherwise
[2] = biological target: the molecule itself; assay: not stated; prescreening of mutants expressed in HEK293-6E at a 2-mL scale; how the dimer was seen is not told

Row | stoichiometry N [1] | Binder | stoichiometry N [2]
1 | 2 | wild-type human CD81 large extracellular loop, P60033 113-201 (domain or fragment) FVNKDQIAKDVKQFYDQALQQAVVDDDANNAKAVVKTFHETLDCCGSSTLTALTTSVLKNNLCPSGSNIISNLFKEDCHQKIDDLFSGK | –
2 | – | hCD81 LEL variant C10 (Val169Cys/Leu174Cys) (domain or fragment, human, UniProt P60033 113-201, looked up, human CD81, large extracellular loop, fragment Phe113-Lys201; numbering according to PDB entry 1G8Q; Excluded from further analysis because of the dimer it formed; the dimer may be a disulfide-linked one (surmise); source: HEK293-6E, transfected, 2-mL scale (prescreening)) FVNKDQIAKDVKQFYDQALQQAVVDDDANNAKAVVKTFHETLDCCGSSTLTALTTSCLKNNCCPSGSNIISNLFKEDCHQKIDDLFSGK | 2
